Assay results published in patent US5968751A, “Method for detecting the presence of protein C antibody in a fluid sample” (The Scripps Research Institute, priority 1997, dated 1999).
No end group written: not given here.

Biological target: APC (Homo sapiens, UniProt P04070)
Experiment: APTT and Xa-1-stage coagulation assays, inhibition of APC anticoagulant activity
Format: biochemical
Parameters: Protein C consists of a 155 amino acid residue light chain and a 262 amino acid residue heavy chain; from tissue; host or cells: human plasma factor IX concentrate
Method: The effect of the synthetic peptides on APC anticoagulant activity were determined using the APTT assay in the presence of either normal citrate anticoagulated plasma (NHP) or protein S depleted plasma (PSDP). The assays were performed essentially as described. See Marlar et al., Blood, 59:1067-1072 […]; Suzuki et al., J. Biol. Chem., 258:163-168 (1983); Gruber et al., Blood, 73:639-642 (1989); Ohlin et al., Biochem., 29:644-651 (1990). NHP was purchased from George King Bio-Medical, Inc. (Overland Park, Kans.). PSDP was prepared from a normal human citrate-anticoagulated plasma pool from ten healthy donors. Protein S was immunodepleted from the NHP by immunoaffinity chromatography of NHP over an anti-protein S antibody column to form PSDP. The anti-protein S antibody column was prepared by coupling 100 mg of a monoclonal, high-affinity, calcium-independent anti-PS antibody, designated S7, to 30 ml of CNBr-activated Sepharose 4B (Pharmacia) as described in Example 2cl).
For the APTT assay, APC was prepared as described in Example 2c2). […] The concentration of the APC used in the assay was initially optimized with respect to the sensitivity of the assay towards APC-induced prolongation of clotting time compared to clotting time without APC.
Once the optimal concentration of APC was determined, peptides from the heavy and light chains of PC and control scrambled peptides listed below in Example 5a2) in Tables 6 and 7 were then separately admixed for a final concentration of 500 μM with 10 nM APC in 100 μl of TBS-BSA at pH 7.4 to form peptide-APC admixtures. Peptides were prepared as described in Example 1. The resulting admixtures were maintained for ten minutes at 37° C. Separate aliquots of peptides maintained under the same conditions in the absence of APC served as controls for the inhibitory effect of synthetic peptides on APC anticoagulant activity. After the maintenance period, 100 μl of NHP and 100 μl APTT-reagent Thrombosil (Ortho Diagnostics, Raritan, N.J.) were admixed into each peptide admixture and maintained for 200 seconds at 37° C. to form a pre-coagulation admixture. In some experiments, PSDP was used in the place of NHP to determine the effect of Protein S on the assay system. Coagulation was then initiated by the admixture of 100 μl of 30 mM CaCl2 in TBS prewarmed to 37° C. to each of the pre-coagulation admixtures. The time for clot formation was measured by an Electra 700 Automatic Coagulation Timer (Medical Laboratory Automation, Inc., Mount Vernon, N.Y.). Each peptide's effect was determined in duplicate.
For peptides at a concentration of 500 μM that inhibited at least 50% of APC anticoagulant activity, analysis of dose-response was subsequently conducted.
For testing the inhibition of the synthetic peptides on APC activity described above, Xa-1-stage coagulation assays were also performed as described. See Seegers et al., Thrombosis Res., 13:233-243 (1978); Marlar et al., supra; and Walker et al., J. Biol. Chem., 265:1484-1489 (1990).

[1] = mean values of APTT and Xa-1 stage assays, NHP, control peptide at 500 μM (±10%)

APC, sequence (P04070 43-197 limits assumed): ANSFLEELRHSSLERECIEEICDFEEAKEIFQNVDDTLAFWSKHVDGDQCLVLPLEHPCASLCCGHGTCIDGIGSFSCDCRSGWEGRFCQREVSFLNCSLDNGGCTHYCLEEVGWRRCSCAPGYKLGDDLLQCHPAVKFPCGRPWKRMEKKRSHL
APC, sequence (P04070 212-450 limits assumed): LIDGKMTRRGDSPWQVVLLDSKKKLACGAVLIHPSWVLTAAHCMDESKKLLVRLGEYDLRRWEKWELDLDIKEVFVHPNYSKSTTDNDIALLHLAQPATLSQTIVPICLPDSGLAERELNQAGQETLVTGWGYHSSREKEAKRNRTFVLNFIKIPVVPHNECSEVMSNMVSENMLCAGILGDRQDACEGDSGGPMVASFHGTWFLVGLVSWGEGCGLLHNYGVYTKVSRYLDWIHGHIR

| Substance | 90% inhibition of APC anticoagulant activity (APTT and Xa-1-stage assays in NHP and PSDP) | IC50 (APTT and Xa-1-stage assays in NHP and PSDP, read-out: 50% inhibition of APC anticoagulant activity) [µM] | IC50 (concentration of peptide that inhibits 50% of APC anticoagulant activity) [1] | IC90 ** μM (concentration of peptide that inhibits 90% of APC anticoagulant activity) [1] | effect on APC anticoagulant activity (various concentrations up to 500 μM peptide) |
| --- | --- | --- | --- | --- | --- |
| KRNRTFVLNFIKIPV-NH2 [PC311-325, Lys-Arg-Asn-Arg-Thr-Phe-Val-Leu-Asn-Phe-Ile-Lys-Ile-Pro-Val] | approximately 50 μM | 7 to 20 | – | – | – |
| VKFTIRVFNPRNLKI [Control Peptide, reference compound] | – | – | no effect | no effect | no significant effect |
